Experimental findings from US20090220511A1 (RUTGERS THE STATE UNIVERSITY OF NEW JERSEY, published 2009) are described below.

Series [1] concerns the target FLAG tagged chimeric IL-10R1/CRF2-12 receptor (IL-10R1 extracellular domain fused to the transmembrane and intracellular domains of CRF2-12) on HT-29 cells (human) (UniProt Q13651). Description: cell-based or functional assay.
Series [2] concerns the molecule itself. Description: crosslinking of the 32P-labeled ligand to itself in solution, SDS-PAGE. How it is done:
(§1) Untreated 32P-labeled FL-IFN-λ1-P ([32P]FL-IFN-λ1-P) was loaded as a control (lane 1). ([32P]FL-IFN-λ1-P) was also incubated in DMEM medium with 10% FBS and crosslinking in solution was performed as described (32) (lane 2). The untransfected and transfected hamster cells described in FIG. 22 row 1 were incubated with 32P-labeled FL-IFN-λ1-P with or without addition of a 100-fold excess of unlabeled IFN-λ1 (competitor), washed, harvested and crosslinked. The extracted crosslinked complexes were analyzed on 7.5% SDS-PAGE. The molecular weight markers are shown on the left.
(§2) In another embodiment of the present invention, the interaction between IFN-λ and its receptor was characterized by crosslinking (FIG. 22). Crosslinking experiments were performed with radiolabeled IFN-λ (FIGS. 20B and C) and the IFN-λ receptor chains expressed in hamster cells (FIG. 22). COS cell-expressed FL-IFN-λ1-P was purified to homogeneity and radiolabeled (FIGS. 20B and C). […] FL-IFN-λ1-P was labeled with [32P]ATP and used for crosslinking to cells as described (Li, et al., (1989) Proc Natl Acad Sci USA 86, 558-562; Kotenko, et al., (1995) J Biol Chem 270, 20915-20921; Pestka, et al., (1999) Protein Expr Purif 17, 203-214; Kotenko, et al., (2001) J Immunol 166, 7096-7103).

The target of series [3] is T1, intact human CRF2-4 chain expressed alone on hamster 16-9 cells (human, UniProt Q08334 20-325).
T1 construct: whole, on cells; From plasmid pEF-CRF2-4 (pEF-IL-10R2), on hamster 16-9 cells without CRF2-12/γR1; also called IL-10R2
T1 sequence (looked up): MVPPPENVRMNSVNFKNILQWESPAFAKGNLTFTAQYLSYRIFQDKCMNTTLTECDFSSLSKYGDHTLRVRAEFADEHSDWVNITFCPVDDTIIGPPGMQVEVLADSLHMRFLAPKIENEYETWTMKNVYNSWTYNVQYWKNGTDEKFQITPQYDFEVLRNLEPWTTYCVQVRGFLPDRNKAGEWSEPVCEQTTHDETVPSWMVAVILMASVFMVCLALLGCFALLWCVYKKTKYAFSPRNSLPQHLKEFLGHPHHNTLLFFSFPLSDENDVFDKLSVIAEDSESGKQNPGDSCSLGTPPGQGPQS
Description: crosslinking of 32P-labeled ligand to transfected hamster cells, 7.5% SDS-PAGE. The protocol: as §1
as §2, with “7096-7103). […]” for “7096-7103).”

Series [4] deals with T2, chimeric human CRF2-12/γR1 chain expressed alone on hamster 16-9 cells (human, UniProt P15260 246-489).
T2 construct: domain: transmembrane and intracellular domains; On the cell surface of hamster 16-9 cells, without human CRF2-4; also called CRF2-12/IFN-γR1; CRF2-12/gR1
T2 sequence: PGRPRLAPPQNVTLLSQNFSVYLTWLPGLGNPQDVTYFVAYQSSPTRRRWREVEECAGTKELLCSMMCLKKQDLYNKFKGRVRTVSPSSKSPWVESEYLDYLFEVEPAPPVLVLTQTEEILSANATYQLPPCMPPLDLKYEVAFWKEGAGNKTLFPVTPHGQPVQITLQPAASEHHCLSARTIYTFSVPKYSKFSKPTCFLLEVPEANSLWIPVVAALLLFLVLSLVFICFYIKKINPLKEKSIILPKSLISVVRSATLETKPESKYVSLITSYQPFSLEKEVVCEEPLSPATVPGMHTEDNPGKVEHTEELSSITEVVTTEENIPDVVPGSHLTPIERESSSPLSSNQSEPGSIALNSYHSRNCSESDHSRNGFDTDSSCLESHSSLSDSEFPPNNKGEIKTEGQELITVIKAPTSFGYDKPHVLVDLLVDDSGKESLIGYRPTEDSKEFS
The description is as above. The protocol: as §1
as §2, with “7096-7103). […]” for “7096-7103).”

Series [5] deals with T1, intact human CRF2-4 chain expressed …. As to the kind of experiment: flow cytometry with anti-FLAG antibody on transfected hamster cells. How it is done:
(§3) A. Four cell lines used in these experiments are schematically shown (top panels): the parental Chinese hamster 16-9 cells and cells expressing the human CRF2-12/gR1 chimeric receptor or human IL-10R2 alone or both receptors together. […] The cells were also tested for their ability to bind FL-IFN-λs (panels E, F, G, H and I). The cells were incubated for three hours at 20° C. with conditioned medium from COS-1 cells transfected with one of the following plasmids: the control vector pEF-SPFL (open areas, thick lines); the pEF-FL-IFN-λ1 (FL-IFN-λ1; open areas, thin lines; panels E, F, G and H) or the pEF-FL-IFN-λ2 (FL-IFN-λ2; shaded areas, thin lines; panel I). […] Cells expressing both chains were co-incubated with either FL-IFN-λ1 or FL-IFN-λ2 ([…] of conditioned media from COS cells expressing FL-IFN-λ1/2) and with E. coli produced IFN-λ1 lacking the FLAG epitope (IFN-λ1E. coli, 1 mg/ml) (open areas, thin lines; panels H and I). Ligand binding to the cell surface was determined by flow cytometry with anti-FLAG antibody (Sigma) as the primary antibody and fluorescein isothiocyanate-conjugated goat anti-mouse IgG (Santa Cruz) as the secondary antibody. The ordinate represents relative cell numbers, and the abscissa relative fluorescence (logarithmic scale).
(In flow cytometry, cells or beads pass a laser one at a time.)

The target of series [6] is T2, chimeric human CRF2-12/γR1 chain …. The series is described as above. The protocol: as §3

FLAG tagged chimeric IL-10R1/CRF2-12 receptor (IL-10R1 extracellular domain fused to the transmembrane and intracellular domains of CRF2-12) on HT-29 cells (human), sequence (Q13651 other isoform, or with tags, fused parts or gaps mutant limits assumed): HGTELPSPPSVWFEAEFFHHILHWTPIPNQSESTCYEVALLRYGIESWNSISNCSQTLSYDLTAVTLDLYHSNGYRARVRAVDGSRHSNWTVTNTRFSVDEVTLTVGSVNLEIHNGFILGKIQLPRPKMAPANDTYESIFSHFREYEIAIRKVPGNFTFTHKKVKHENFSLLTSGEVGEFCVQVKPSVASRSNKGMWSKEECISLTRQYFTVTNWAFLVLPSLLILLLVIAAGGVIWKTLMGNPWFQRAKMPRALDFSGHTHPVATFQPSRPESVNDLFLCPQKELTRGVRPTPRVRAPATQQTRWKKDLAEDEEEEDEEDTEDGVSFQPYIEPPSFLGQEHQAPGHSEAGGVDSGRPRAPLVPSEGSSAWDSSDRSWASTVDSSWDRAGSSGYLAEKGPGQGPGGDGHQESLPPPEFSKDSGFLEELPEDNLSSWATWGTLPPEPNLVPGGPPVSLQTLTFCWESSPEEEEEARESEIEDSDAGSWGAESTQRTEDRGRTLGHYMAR

For the molecule “IL-10 (from UniProt P22301 19-178) (ligand)”, in series [1], the MHC class I antigen induction and antiviral activity of HT-29 cells expressing FL-IL-10R1/CRF2-12 is 1 ng/mL; the apoptosis of HT-29 cells expressing FL-IL-10R1/CRF2-12 is greater than 10 ng/mL.

B1: 32P-labeled FL-IFN-λ1-P (ligand, not shown: small tags and cut ends)
chain: PTSKPTPTGKGCHIGRFKSLSPQELASFKKARDALEESLKLKNWSCSSPVFPGNWDLRLLQVRERPVALEAELALTLKVLEAAAGPALEDVLDQPLHTLHHILSQLQACIQPQPTAGPRPRGRLHHWLHRLQEAPKKESAGCLEASVTFNLFRLLTRDLKYVADGNLCLRTSTHPESTRRASVA
modifications: labeled with [32P]ATP on the C-terminal Arg-Arg-Ala-Ser-Val-Ala tag (consensus site of the cAMP-dependent protein kinase)
notes: Expressed in COS cells, purified on anti-FLAG M1 gel and radiolabeled; Primer ifnl-7R may encode extra junction residues before the RRASVA tag; also called [32P]FL-IFN-λ1-P; radiolabeled IFN-λ
Consider B1, for which the binding result in series [2], in series [3] and in series [4] was “no binding” each time.

B2: FL-IFN-λ1 (IFN-λ1 tagged at its N-terminus with the FLAG epitope) (ligand, not shown: small tags and cut ends)
chain: PTSKPTPTGKGCHIGRFKSLSPQELASFKKARDALEESLKLKNWSCSSPVFPGNWDLRLLQVRERPVALEAELALTLKVLEAAAGPALEDVLDQPLHTLHHILSQLQACIQPQPTAGPRPRGRLHHWLHRLQEAPKKESAGCLEASVTFNLFRLLTRDLKYVADGNLCLRTSTHPEST
notes: Used as conditioned medium of transiently transfected COS-1 cells; also called FL-IFN-λ1gene product
Take B2: the binding result in series [5] and in series [6] was “no binding” each time.
